B1: P. falciparum M18 aspartyl aminopeptidase (enzyme, UniProt Q8I2J3 1-570, looked up)
chain: MDKKAREYAQDALKFIQRSGSNFLACKNLKERLENNGFINLSEGETWNLNKNEGYVLCKENRNICGFFVGKNFNIDTGSILISIGHIDSCALKISPNNNVIKKKIHQINVECYGSGLWHTWFDRSLGLSGQVLYKKGNKLVEKLIQINKSVLFLPSLAIHLQNRTRYDFSVKINYENHIKPIISTTLFNQLNKCKRNNVHHDTILTTDTKFSHKENSQNKRDDQMCHSFNDKDVSNHNLDKNTIEHLTNQQNEEKNKHTKDNPNSKDIVEHINTDNSYPLLYLLSKELNCKEEDILDFELCLMDTQEPCFTGVYEEFIEGARFDNLLGSFCVFEGFIELVNSIKNHTSNENTNHTNNITNDINDNIHNNLYISIGYDHEEIGSLSEVGARSYCTKNFIDRIISSVFKKEIHEKNLSVQEIYGNLVNRSFILNVDMAHCSHPNYPETVQDNHQLFFHEGIAIKYNTNKNYVTSPLHASLIKRTFELYYNKYKQQIKYQNFMVKNDTPCGSTVGSMVAANLSMPGIDIGIPQLAMHSIREIAAVHDVFFLIKGVFAFYTYYNQVLSTCVHDK
B2: P. falciparum glutamine synthetase (enzyme, UniProt C0H551 1-543, looked up)
chain: MKSVSFSNNAELYEYIKDKKNDVEIVACIITNLLGTYFKCFFYVKEITLNKLESGFSFDASSIKLCSDTEVSDFFIKVDHSTCYLEECDGKNILNIMCDIKRYNGFDYYKCPRTILKKTCEFVKNEGIADKVCIGNELEFFIFDKVNYSLDEYNTYLKVYDRESFSCKNDLSSIYGNHVVNKVEPHKDHFNNPNNEYLINDDSKKVKKKSGYFTTDPYDTSNIIKLRICRALNDMNINVQRYHHEVSTSQHEISLKYFDALTNADFLLITKQIIKTTVSSFNRTATFMPKPLVNDNGNGLHCNISLWKNNKNIFYHNDPSTFFLSKESFYFMYGIVKHAKALQAFCNATMNSYKRLVPGFETCQKLFYSFGSRSAVIRLSLINYSNPSEKRIEFRLPDCANSPHLVMAAIILAGYDGIKSKEQPLVPFESKDNHFYISSIFSKYVQHPENFNILTHALEGYESLHTINESPEFKNFFKCEEPQGISFSLVESLDALEKDHAFLTVNNIFTEEMIQEYIKFKREEIDAYNKYVNAYDYHLYYEC

Molecular target: the molecule itself
Test: cryo-EM structure

| Protein | stoichiometry N |
| --- | --- |
| B1 | 12 |
| B2 | 12 |

Source: article PMC7494424 (Nature methods, 2019)
